# Assay results taken from the emibetuzumab library of Makowski et al. (2022).
# B1: VH:VL chains; a variant is named by its letters at X, in order (parent)
# chain 1: QVQLVQSGAEVKKPGASVKVSCKASGYTFTDYXMHWVRQAPGQGLEWMGXVNPNXXXTTYNQKFEGRVTMTTDTSTSTAYMELRSLRSDDTAVYYCARXNXLDXWGQGTTVTVSS
# chain 2: DIQMTQSPSSLSASVGDRVTITCSVSSSVSSIYLHWYQQKPGKAPKLLIYSTSNLASGVPSRFSGSGSGTDFTLTISSLQPEDFATYYCQVYSGYPLTFGGGTKVEIK
# Variants of: B1
# Assay: yeast display scFab, FACS + sequencing
# Method in brief: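 Non-specific binding was called from deep sequencing of sorted yeast cells displaying a heavy-chain CDR mutant scFab library. Cells labelled with anti-Myc and biotinylated ovalbumin (260 μg/mL in PBSB, 3 h, room temperature) or soluble membrane proteins (130 μg/mL, 20 min on ice) were FACS-sorted, collecting the top 25% and bottom 10% of binders from two replicates. A sequence was positive when present in ≥3 of 4 pooled positive samples and absent from all negatives, and negative under the converse rule.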
row,Variant,non-specific binding call
1,SKAGGDVD,no binding
2,FKATTVVD chain 1 S88F,binds
3,SGRGNDAV,no binding
4,DGRGDALS,no binding
5,AKAADSSD,binds
6,VKARGSAV,binds
7,VKARGSAF,binds
8,YGKGGDLA,binds
9,VKEKGAWV,binds
10,VKEKGAWS,no binding
11,VKEKGAWY,binds
12,DGTGGSGA chain 1 R67H,no binding
13,SGRGNSGV,no binding
14,SKAGGSAD,binds
15,FKARDSSA,binds
16,SKAKGFGV,binds
17,DKEEADGV,no binding
18,VGGTSALD,no binding
19,YGRTSAAV,binds
20,DKEGGDAS,no binding
21,DKEGGDAV,no binding
22,DKAGGAGV,no binding
23,FKATTSGA,binds
24,FKAGGSGA,binds

row,Variant,non-specific binding call
1,VGGTSSAD,no binding
2,YKAGGSLF,binds
3,SGKKSSGV,binds
4,YGTATFLV,binds
5,VGGTSDVV,no binding
6,VGGTSDVF,no binding
7,VGGTSDVA,no binding
8,DKEGGDLA,no binding
9,SKEAGYSV,binds
10,SGRGNAAD,no binding
11,SKAENAWV,binds
12,VGRTSFGF,binds
13,DKAGGDGS,no binding
14,YKEEDSLD,no binding
15,AKEADDVA,no binding
16,VKEKGALD,binds
17,DGGTNDGA,no binding
18,VGRATVGS,binds
19,YKARGAVY,binds
20,FGRGGVGD,binds
21,YKAGGYSD,binds
22,YKAKGAAD,binds
23,YKAKGAAA,binds
24,DKEGGSLV,no binding

row,Variant,non-specific binding call
1,DKEGGSLD,no binding
2,FKAGSSGV,binds
3,YKAGGFWF,binds
4,FKEGGSAA,binds
5,YKAGDDGA,no binding
6,DKEGGYSV,no binding
7,VKEKGDGS,no binding
8,FGRGTSGD,binds
9,DKEGGFGV,no binding
10,VKAGDAAV,no binding
11,VKAGGDVY,no binding
12,YKEGGSGD,no binding
13,VKAGDAVY,no binding
14,DGGTNAGD,no binding
15,VKARGSLA,binds
16,YKAGGSGV,binds
17,YKAGDVSV,binds
18,AKAGSYGV,binds
19,YGRRGFSV,binds
20,YKARGSGS,binds
21,YKARGSGA,binds
22,YKARGSLY,binds
23,YKARGSLV,binds
24,VKAGGDGS,no binding

row,Variant,non-specific binding call
1,SKAGGVGA,binds
2,FKARGASV,binds
3,SGRGNAGD,no binding
4,FKAGGAVA,binds
5,YKAGGSAS,binds
6,AGTKADVV chain 1 G108S,no binding
7,YKAGGAWD,binds
8,YKAGDAAA,binds
9,SKAKGSGV,binds
10,SKAKGSGA,binds
11,VKAAGSVD,binds
12,FGRGSSWA,no binding
13,VGRGNVGV,binds
14,AKAGGASD,binds
15,SKAGDAWD,binds
16,SKAGDAWY,binds
17,VKAGASAD,binds
18,FKAEAFSF,binds
19,YKARGSSS,binds
20,YKARGSWD,binds
21,FGRRTYGD,binds
22,SKAGGAGA,binds
23,VKARSAGV,binds
24,VGKGDDAA,no binding

row,Variant,non-specific binding call
1,DGTGGAGA,no binding
2,SKAKGAWS,binds
3,SKAKGAWD,binds
4,DKEGGDGA,no binding
5,DKEGGDGV,no binding
6,DKEGGDGY,no binding
7,FKARGSGV,binds
8,DKEEDSLA,no binding
9,DGTKSYGV,binds
10,SGRGNDGV,no binding
11,VKAGDAWS,no binding
12,DKEGGSSA,no binding
13,DKEGGSSS,no binding
14,VKAGSAAA,no binding
15,FKEGNSLD,no binding
16,VGGTSDWA,no binding
17,FKARGSVD,binds
18,VKAGDDVA,no binding
19,VKEADDVA,no binding
20,YGTAAFGF,binds
21,VKARGAAV,binds
22,VGGTSSLD,no binding
23,YKEEDDAV,no binding
24,VGRGNSGD,no binding

row,Variant,non-specific binding call
1,DKEGGDVD,no binding
2,DKEGGDVA,no binding
3,DKEGGDVV,no binding
4,AKATADVD,binds
5,FGKGGFGY,binds
6,VKAGDSGA,no binding
7,YGTRSAAD,no binding
8,DGGTNDVD,no binding
9,DGGTNDVA,no binding
10,YKAKGASV,binds
11,SKAGGALD,binds
12,SKAKGSAA,binds
13,DKEGGSAD,no binding
14,DKEGGAAA,no binding
15,DKEGGAAD,no binding
16,DKEGGAAV,no binding
17,DGKEGYWA,binds
18,YKEGAYAD,binds
19,SGREGDWD,binds
20,YKEGGAGD,no binding
21,YKEKGDGA,no binding
22,YKAGDAGD,no binding
23,FGTKGAWD,binds
24,FKEAGAVY,binds

row,Variant,non-specific binding call
1,VKEGGSSA,no binding
2,VKEGGDVA,no binding
3,VKEGGDVV,no binding
4,YKARTSSS,binds
5,FKARDSGD,binds
6,AGKGGFAY,binds
7,YKEGDSGV chain 1 R87K,no binding
8,YKARGAAY,binds
9,YKARGAAD,binds
10,SGGTGDVF,no binding
11,YKAGGFGA,binds
12,SGTKGYWD,binds
13,VKEGGDGA,no binding
14,DGRGNSGD,no binding
15,VGTKGSSA,no binding
16,VKAGGAGS chain 1 G44D,binds
17,YGGTSYSV,no binding
18,VKAASAVY,no binding
19,DGGTNSSA,no binding
20,YKAKGSAV,binds
21,YKEKGAVD,binds
22,FKARGALV,binds
23,DKEGGSGV,no binding
24,VGTKGDAA,no binding

row,Variant,non-specific binding call
1,DKAKGDGS,no binding
2,YGKGTSGF,no binding
3,SKAKGSSD,binds
4,YKARGAWD,binds
5,YKARGAWS,binds
6,YKARGAWA,binds
7,VGGTGSGY,no binding
8,VGGTGSGA,no binding
9,VKAGDSSS,no binding
10,VKEGGSAD,binds
11,YKAEDVGD,binds
12,YGRGNSGD,no binding
13,YKAGGALA,binds
14,YKAGGALY,binds
15,YKAGGALD,binds
16,SGREGDSA,no binding
17,VGTKGAGF,binds
18,YKAKGALD,binds
19,DGGTGDVF,no binding
20,VGGTSSSS,no binding
21,VGGTSSSV,no binding
22,VGGTSSSA,no binding
23,VGGTSDGD,no binding
24,VGGTSDGA,no binding

row,Variant,non-specific binding call
1,VGGTSDGV,no binding
2,SGKKAVWV,binds
3,SGTADSSS,binds
4,VKAGSDVA,no binding
5,VKAKDAGY,binds
6,AGGTSYSV,no binding
7,SKEGGVGV,binds
8,VKARGSVD,binds
9,VKARGSVA,binds
10,SGRGNALD,no binding
11,YKAKGAGD,binds
12,VKEGGAVV,no binding
13,VKARNDLV,no binding
14,VKARGAGV,binds
15,VKARGAGS,binds
16,FGRRGAGV,binds
17,VKEADAWV,no binding
18,DGGTSYSV,no binding
19,YKAGDSSD,no binding
20,VKARGSGV,binds
21,VKARGSGD,binds
22,VKARGSGA,binds
23,YKARGSAA,binds
24,YKARGAGA,binds

row,Variant,non-specific binding call
1,YKARGAGV,binds
2,FKAKGAWD,binds
3,SKAGSDVA,no binding
4,DKEGGAVV,no binding
5,YKARGALS,binds
6,VKAGGDSD,no binding
7,YKARSALF,binds
8,VKAKGAAA,binds
9,VKAGGDAV,no binding
10,VGGTSSGA,no binding
11,YKAGDSVA,no binding
12,AGRGADLS,no binding
13,SGRGNSVD,no binding
14,DKATGDAY,no binding
15,VKATAVAV,binds
16,FGKEDSVD,binds
17,SGKGGSAY,binds
18,VKAGGSLY,binds
19,AGTRSFGY,binds
20,YGKRDASY,binds
21,YGTRSYGV,binds
